Target: Wild-type RABV-G, untagged, full length, on transfected Expi293 cells (Rabies virus, Pasteur (PV) ectodomain; …, UniProt P08667, strain)
Assay: flow cytometry on cells
Details: one partner purified

B1: 1112-1 IgG (antibody, V domains shown)
VH: QVQLQQPGAELLKPGTSMKLSCKASGYTFSNYWMHWVKLRPGQGFEWIGEINPFNGGTNFNEKFKSKATLTVDRSSSTAYMQLSSVTSEDSAVYYCTIPLSDYGDWFFAVWGAGTTVTVSS
VL: DIVMTQSHKFMSTSIGDRVSITCKASQDVSTAVAWYRQKPGQSPKLLIYSASYRSTGVPDRFTGSGSGTDFTFTISSVQAEDLAVFYCQQHYSAPLTFGAGTKLELK
notes: copies: 2 + 2
  binding result: binds

B2: 17C7 IgG (antibody, V domains shown)
VH: EVQLVESGGGVVQPGRSLRLSCAASGFTFSTYAMHWVRQAPGKGLEWVAVVSYDGRTKDYADSVKGRFTISRDNSKNTLYLQMNSLRTEDTAVYFCARERFSGAYFDYWGQGTLVTVSS
VL: EIVLTQSPATLSLSPGERATLSCRASQSVSSYLAWYQQKPGQAPRLLIYDASNRATGIPARFSGSGSGTDFTLTISSLEPEDFAVYSCQQRNNWPPTFGGGTKVEIK
notes: IgG1; copies: 2 + 2
  binding result: binds

Source: PMC9605875 (Cell Host & Microbe, 2022)
